# Laboratory results: IntAct's records for PubMed 28838205
# B1: WW domain-binding protein 4 (Homo sapiens), O75554 (parent)
# chain: MADYWKSQPKKFCDYCKCWIADNRPSVEFHERGKNHKENVAKRISEIKQKSLDKAKEEEKASKEFAAMEAAALKAYQEDLKRLGLESEILEPSITPVTSTIPPTSTSNQQKEKKEKKKRKKDPSKGRWVEGITSEGYHYYYDLISGASQWEKPEGFQGDLKKTAVKTVWVEGLSEDGFTYYYNTETGESRWEKPDDFIPHTSDLPSSKVNENSLGTLDESKSSDSHSDSDGEQEAEEGGVSTETEKPKIKFKEKNKNSDGGSDPETQKEKSIQKQNSLGSNEEKSKTLKKSNPYGEWQEIKQEVESHEEVDLELPSTENEYVSTSEADGGGEPKVVFKEKTVTSLGVMADGVAPVFKKRRTENGKSRNLRQRGDDQ
# B2: WW domain-binding protein 4 (Homo sapiens), O75554 (parent)
# chain: B1 chain
# partner: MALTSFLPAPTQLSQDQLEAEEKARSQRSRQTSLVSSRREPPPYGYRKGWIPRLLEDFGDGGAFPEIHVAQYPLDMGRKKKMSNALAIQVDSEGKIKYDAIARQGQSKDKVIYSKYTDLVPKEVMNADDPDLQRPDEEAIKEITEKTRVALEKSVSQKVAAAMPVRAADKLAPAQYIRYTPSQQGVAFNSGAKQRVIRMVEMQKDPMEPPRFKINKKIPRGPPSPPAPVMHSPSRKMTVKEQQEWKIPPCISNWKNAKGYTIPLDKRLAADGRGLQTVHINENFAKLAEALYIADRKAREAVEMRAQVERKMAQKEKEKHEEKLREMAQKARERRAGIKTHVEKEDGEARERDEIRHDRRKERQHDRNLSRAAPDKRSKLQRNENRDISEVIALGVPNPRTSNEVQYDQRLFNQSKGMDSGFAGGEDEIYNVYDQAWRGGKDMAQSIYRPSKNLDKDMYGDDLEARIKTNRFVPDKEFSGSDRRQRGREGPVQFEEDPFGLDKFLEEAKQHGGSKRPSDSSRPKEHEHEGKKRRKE
# B3: WW domain-binding protein 4 (Homo sapiens), O75554 (parent)
# chain: B1 chain
# partner: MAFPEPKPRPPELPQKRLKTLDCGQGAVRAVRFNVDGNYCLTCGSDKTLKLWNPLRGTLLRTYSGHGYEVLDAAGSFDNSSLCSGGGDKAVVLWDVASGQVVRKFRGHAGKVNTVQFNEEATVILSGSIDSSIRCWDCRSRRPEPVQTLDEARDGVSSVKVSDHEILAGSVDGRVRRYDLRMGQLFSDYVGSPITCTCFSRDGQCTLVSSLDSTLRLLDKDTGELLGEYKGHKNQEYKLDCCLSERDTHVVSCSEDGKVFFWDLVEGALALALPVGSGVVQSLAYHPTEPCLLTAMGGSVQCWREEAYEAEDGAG
# B4: WW domain-binding protein 4 (Homo sapiens), O75554 (parent)
# chain: B1 chain
# partner: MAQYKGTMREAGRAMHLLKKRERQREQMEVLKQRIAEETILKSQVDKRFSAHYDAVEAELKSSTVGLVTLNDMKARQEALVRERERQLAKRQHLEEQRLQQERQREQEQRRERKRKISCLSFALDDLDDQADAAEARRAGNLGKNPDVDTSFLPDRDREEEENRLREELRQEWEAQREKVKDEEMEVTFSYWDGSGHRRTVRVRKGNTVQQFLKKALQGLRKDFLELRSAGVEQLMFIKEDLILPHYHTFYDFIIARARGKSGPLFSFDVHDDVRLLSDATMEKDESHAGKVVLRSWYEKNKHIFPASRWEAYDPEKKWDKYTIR
# Variants of: B1
# Conditions: with u520_human SNRNP200, O75643
# Chain of u520_human SNRNP200, O75643 (O75643 whole entry): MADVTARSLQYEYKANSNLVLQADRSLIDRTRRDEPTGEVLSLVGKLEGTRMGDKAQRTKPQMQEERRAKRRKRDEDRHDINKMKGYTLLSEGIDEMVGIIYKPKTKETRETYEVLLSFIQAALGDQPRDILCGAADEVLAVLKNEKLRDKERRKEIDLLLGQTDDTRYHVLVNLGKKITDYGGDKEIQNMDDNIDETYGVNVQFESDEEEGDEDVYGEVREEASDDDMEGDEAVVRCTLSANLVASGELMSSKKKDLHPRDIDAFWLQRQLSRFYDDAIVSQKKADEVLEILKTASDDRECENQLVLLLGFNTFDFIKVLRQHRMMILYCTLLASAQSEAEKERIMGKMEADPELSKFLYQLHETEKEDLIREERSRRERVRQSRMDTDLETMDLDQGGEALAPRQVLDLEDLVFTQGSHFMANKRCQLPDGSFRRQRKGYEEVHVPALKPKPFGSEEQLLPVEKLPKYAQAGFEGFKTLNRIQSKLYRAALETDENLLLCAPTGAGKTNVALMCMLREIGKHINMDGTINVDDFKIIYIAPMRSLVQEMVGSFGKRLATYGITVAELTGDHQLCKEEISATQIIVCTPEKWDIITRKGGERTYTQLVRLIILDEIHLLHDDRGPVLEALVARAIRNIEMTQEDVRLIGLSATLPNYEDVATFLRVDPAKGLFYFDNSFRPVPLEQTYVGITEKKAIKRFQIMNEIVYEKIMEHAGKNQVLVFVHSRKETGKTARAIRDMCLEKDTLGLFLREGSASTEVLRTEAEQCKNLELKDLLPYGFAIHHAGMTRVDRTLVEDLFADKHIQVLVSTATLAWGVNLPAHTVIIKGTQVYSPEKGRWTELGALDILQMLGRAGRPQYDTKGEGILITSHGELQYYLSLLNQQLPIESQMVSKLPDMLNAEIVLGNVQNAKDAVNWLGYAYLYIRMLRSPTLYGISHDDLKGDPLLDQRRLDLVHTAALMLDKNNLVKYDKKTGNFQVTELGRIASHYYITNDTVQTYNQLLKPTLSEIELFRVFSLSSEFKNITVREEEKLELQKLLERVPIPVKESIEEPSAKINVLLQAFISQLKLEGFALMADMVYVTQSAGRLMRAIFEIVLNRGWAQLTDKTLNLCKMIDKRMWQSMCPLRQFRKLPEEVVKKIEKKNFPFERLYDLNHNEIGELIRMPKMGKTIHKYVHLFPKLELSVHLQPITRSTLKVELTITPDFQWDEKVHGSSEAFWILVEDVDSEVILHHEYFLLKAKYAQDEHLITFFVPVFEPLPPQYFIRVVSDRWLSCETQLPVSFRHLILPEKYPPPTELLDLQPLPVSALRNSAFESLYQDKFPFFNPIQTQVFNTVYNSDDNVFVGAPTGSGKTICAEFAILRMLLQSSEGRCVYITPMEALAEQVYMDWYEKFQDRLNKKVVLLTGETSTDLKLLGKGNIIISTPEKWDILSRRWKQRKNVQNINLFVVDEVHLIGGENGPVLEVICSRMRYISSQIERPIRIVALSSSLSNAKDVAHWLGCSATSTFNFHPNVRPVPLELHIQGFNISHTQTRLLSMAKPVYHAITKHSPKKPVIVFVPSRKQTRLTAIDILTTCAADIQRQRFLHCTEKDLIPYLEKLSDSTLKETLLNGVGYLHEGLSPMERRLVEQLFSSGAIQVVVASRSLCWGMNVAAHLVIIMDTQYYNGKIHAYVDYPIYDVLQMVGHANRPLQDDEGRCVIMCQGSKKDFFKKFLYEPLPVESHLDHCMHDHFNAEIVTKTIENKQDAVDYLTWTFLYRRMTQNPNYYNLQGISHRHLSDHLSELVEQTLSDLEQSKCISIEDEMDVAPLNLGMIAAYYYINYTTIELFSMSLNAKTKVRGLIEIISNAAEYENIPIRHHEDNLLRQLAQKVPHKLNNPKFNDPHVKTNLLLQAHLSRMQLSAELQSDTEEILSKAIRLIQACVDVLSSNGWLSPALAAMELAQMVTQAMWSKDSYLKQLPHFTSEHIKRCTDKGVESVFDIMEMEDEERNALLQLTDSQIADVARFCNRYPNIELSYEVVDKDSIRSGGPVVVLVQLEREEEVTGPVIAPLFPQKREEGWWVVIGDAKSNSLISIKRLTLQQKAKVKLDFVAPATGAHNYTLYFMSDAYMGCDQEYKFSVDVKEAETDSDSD
row,Variant,effect of a mutation on the interaction
1,MADYWKSQPKKFCDYCKCWIADNRPSVEFHERGKNHKENVAKRISEIKQKSLDKAKEEEKASKEFAAMEAAALKAYQEDLKRLGLESEILEPSITPVTSTIPPTSTSNQQKEKKEKKKRKKDPSKGRWVEGITSEGYHYYYDLISGASQAEKPEGFQGDLKKTAVKTVWVEGLSEDGFTYYYNTETGESRWEKPDDFIPHTSDLPSSKVNENSLGTLDESKSSDSHSDSDGEQEAEEGGVSTETEKPKIKFKEKNKNSDGGSDPETQKEKSIQKQNSLGSNEEKSKTLKKSNPYGEWQEIKQEVESHEEVDLELPSTENEYVSTSEADGGGEPKVVFKEKTVTSLGVMADGVAPVFKKRRTENGKSRNLRQRGDDQ [W150A],with no effect

# Variants of: B1
# Conditions: with ppih_human PPIH
row,Variant,effect of a mutation on the interaction
1,MADYWKSQPKKFCDYCKCWIADNRPSVEFHERGKNHKENVAKRISEIKQKSLDKAKEEEKASKEFAAMEAAALKAYQEDLKRLGLESEILEPSITPVTSTIPPTSTSNQQKEKKEKKKRKKDPSKGRWVEGITSEGYHYYYDLISGASQAEKPEGFQGDLKKTAVKTVWVEGLSEDGFTYYYNTETGESRWEKPDDFIPHTSDLPSSKVNENSLGTLDESKSSDSHSDSDGEQEAEEGGVSTETEKPKIKFKEKNKNSDGGSDPETQKEKSIQKQNSLGSNEEKSKTLKKSNPYGEWQEIKQEVESHEEVDLELPSTENEYVSTSEADGGGEPKVVFKEKTVTSLGVMADGVAPVFKKRRTENGKSRNLRQRGDDQ [W150A],with no effect

# Variants of: B1
# Conditions: with sf3b2_human SF3B2, Q13435
# Chain of sf3b2_human SF3B2, Q13435 (Q13435 whole entry): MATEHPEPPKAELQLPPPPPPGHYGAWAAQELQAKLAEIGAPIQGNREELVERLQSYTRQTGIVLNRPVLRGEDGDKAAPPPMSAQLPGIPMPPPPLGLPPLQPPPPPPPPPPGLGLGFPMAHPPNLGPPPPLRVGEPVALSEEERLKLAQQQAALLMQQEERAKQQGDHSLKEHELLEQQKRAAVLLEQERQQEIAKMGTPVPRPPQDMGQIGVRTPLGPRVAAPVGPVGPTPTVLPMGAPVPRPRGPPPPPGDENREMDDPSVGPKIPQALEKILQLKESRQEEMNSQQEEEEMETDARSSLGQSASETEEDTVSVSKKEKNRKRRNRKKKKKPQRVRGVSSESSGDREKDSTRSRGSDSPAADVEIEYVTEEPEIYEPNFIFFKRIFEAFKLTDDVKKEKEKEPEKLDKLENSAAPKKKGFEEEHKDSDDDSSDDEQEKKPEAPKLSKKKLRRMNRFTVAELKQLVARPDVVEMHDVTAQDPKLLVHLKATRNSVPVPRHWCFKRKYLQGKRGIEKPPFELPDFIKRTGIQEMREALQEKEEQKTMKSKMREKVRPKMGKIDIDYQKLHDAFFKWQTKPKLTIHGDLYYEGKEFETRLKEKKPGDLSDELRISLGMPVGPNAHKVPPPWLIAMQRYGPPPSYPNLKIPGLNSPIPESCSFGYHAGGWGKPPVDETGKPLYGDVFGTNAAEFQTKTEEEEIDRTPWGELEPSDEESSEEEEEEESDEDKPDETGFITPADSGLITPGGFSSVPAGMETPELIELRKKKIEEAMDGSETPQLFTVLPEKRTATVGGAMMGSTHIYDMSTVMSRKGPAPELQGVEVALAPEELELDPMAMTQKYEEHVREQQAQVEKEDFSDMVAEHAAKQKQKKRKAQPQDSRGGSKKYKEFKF
row,Variant,effect of a mutation on the interaction
1,MADYWKSQPKKFCDYCKCWIADNRPSVEFHERGKNHKENVAKRISEIKQKSLDKAKEEEKASKEFAAMEAAALKAYQEDLKRLGLESEILEPSITPVTSTIPPTSTSNQQKEKKEKKKRKKDPSKGRWVEGITSEGYHYYYDLISGASQAEKPEGFQGDLKKTAVKTVWVEGLSEDGFTYYYNTETGESRWEKPDDFIPHTSDLPSSKVNENSLGTLDESKSSDSHSDSDGEQEAEEGGVSTETEKPKIKFKEKNKNSDGGSDPETQKEKSIQKQNSLGSNEEKSKTLKKSNPYGEWQEIKQEVESHEEVDLELPSTENEYVSTSEADGGGEPKVVFKEKTVTSLGVMADGVAPVFKKRRTENGKSRNLRQRGDDQ [W150A],with no effect

# Variants of: B1
# Conditions: with zc21a_human ZC2HC1A
row,Variant,effect of a mutation on the interaction
1,MADYWKSQPKKFCDYCKCWIADNRPSVEFHERGKNHKENVAKRISEIKQKSLDKAKEEEKASKEFAAMEAAALKAYQEDLKRLGLESEILEPSITPVTSTIPPTSTSNQQKEKKEKKKRKKDPSKGRWVEGITSEGYHYYYDLISGASQAEKPEGFQGDLKKTAVKTVWVEGLSEDGFTYYYNTETGESRWEKPDDFIPHTSDLPSSKVNENSLGTLDESKSSDSHSDSDGEQEAEEGGVSTETEKPKIKFKEKNKNSDGGSDPETQKEKSIQKQNSLGSNEEKSKTLKKSNPYGEWQEIKQEVESHEEVDLELPSTENEYVSTSEADGGGEPKVVFKEKTVTSLGVMADGVAPVFKKRRTENGKSRNLRQRGDDQ [W150A],with no effect

# Variants of: B1
# Conditions: with u520_human SNRNP200, O75643
# Remark: another data set of the same source
row,Variant,effect of a mutation on the interaction
1,MADYWKSQPKKFCDYCKCWIADNRPSVEFHERGKNHKENVAKRISEIKQKSLDKAKEEEKASKEFAAMEAAALKAYQEDLKRLGLESEILEPSITPVTSTIPPTSTSNQQKEKKEKKKRKKDPSKGRWVEGITSEGYHYYYDLISGASQWEKPEGFQGDLKKTAVKTVWVEGLSEDGFTYYYNTETGESRWEKPDDFIPHTSDLPSSKVNENSLGTLDESKSSDSHSDSDGEQEAEEGGVSTETEKPKIKFKEKNKNSDGGSDPETQKEKSIQKQNSLGSNEEKSKTLKKSNPYGEWQEIKQEVESHEEVDLELPSTENEYVSTSEADGGGEPKVVFKEKTVTSLGVMADGVAPVFEKERTENGKSRNLRQRGDDQ [K357E;R359E],with no effect

# Variants of: B1
# Conditions: with u520_human SNRNP200, O75643
# Remark: another data set of the same source
row,Variant,effect of a mutation on the interaction
1,MADYWKSQPKKFCDYCKCWIADNRPSVEFHERGKNHKENVAKRISEIKQKSLDKAKEEEKASKEFAAMEAAALKAYQEDLKRLGLESEILEPSITPVTSTIPPTSTSNQQKEKKEKKKRKKDPSKGRWVEGITSEGYHYYYDLISGASQWEKPEGFQGDLKKTAVKTVWVEGLSEDGFTYYYNTETGESRWEKPDDFIPHTSDLPSSKVNENSLGTLDESKSSDSHSDSDGEQEAEEGGVSTETEKPKIKFKEKNKNSDGGSDPETQKEKSIQKQNSLGSNEEKSKTLKKSNPYGEWQEIKQEVESHEEVDLELPSTENEYVSTSEADGGGEPKVVFKEKTVTSLGVMADGVAPVFEKERTENGKSRNLRQRGDDQ [K357E;R359E],decreasing interaction strength
2,MADYWKSQPKKFCDYCKCWIADNRPSVEFHERGKNHKENVAKRISEIKQKSLDKAKEEEKASKEFAAMEAAALKAYQEDLKRLGLESEILEPSITPVTSTIPPTSTSNQQKEKKEKKKRKKDPSKGRWVEGITSEGYHYYYDLISGASQWEKPEGFQGDLKKTAVKTVWVEGLSEDGFTYYYNTETGESRWEKPDDFIPHTSDLPSSKVNENSLGTLDESKSSDSHSDSDGEQEAEEGGVSTETEKPKIKFKEKNKNSDGGSDPETQKEKSIQKQNSLGSNEEKSKTLKKSNPYGEWQEIKQEVESHEEVDLELPSTENEYVSTSEADGGGEPKVVFKEKTVTSLGVMADGVAPVFKARATENGKSRNLRQRGDDQ [K358A;R360A],decreasing interaction strength

# Variants of: B2
# Conditions: with snw1_human SNW1, Q13573
row,Variant,effect of a mutation on the interaction
1,MADYWKSQPKKFCDYCKCWIADNRPSVEFHERGKNHKENVAKRISEIKQKSLDKAKEEEKASKEFAAMEAAALKAYQEDLKRLGLESEILEPSITPVTSTIPPTSTSNQQKEKKEKKKRKKDPSKGRWVEGITSEGYHYYYDLISGASQAEKPEGFQGDLKKTAVKTVWVEGLSEDGFTYYYNTETGESRWEKPDDFIPHTSDLPSSKVNENSLGTLDESKSSDSHSDSDGEQEAEEGGVSTETEKPKIKFKEKNKNSDGGSDPETQKEKSIQKQNSLGSNEEKSKTLKKSNPYGEWQEIKQEVESHEEVDLELPSTENEYVSTSEADGGGEPKVVFKEKTVTSLGVMADGVAPVFKKRRTENGKSRNLRQRGDDQ [W150A],with no effect

# Variants of: B3
# Conditions: with wdr83_human WDR83, Q9BRX9
row,Variant,effect of a mutation on the interaction
1,MADYWKSQPKKFCDYCKCWIADNRPSVEFHERGKNHKENVAKRISEIKQKSLDKAKEEEKASKEFAAMEAAALKAYQEDLKRLGLESEILEPSITPVTSTIPPTSTSNQQKEKKEKKKRKKDPSKGRWVEGITSEGYHYYYDLISGASQAEKPEGFQGDLKKTAVKTVWVEGLSEDGFTYYYNTETGESRWEKPDDFIPHTSDLPSSKVNENSLGTLDESKSSDSHSDSDGEQEAEEGGVSTETEKPKIKFKEKNKNSDGGSDPETQKEKSIQKQNSLGSNEEKSKTLKKSNPYGEWQEIKQEVESHEEVDLELPSTENEYVSTSEADGGGEPKVVFKEKTVTSLGVMADGVAPVFKKRRTENGKSRNLRQRGDDQ [W150A],with no effect

# Variants of: B4
# Conditions: with fa50b_human FAM50B
row,Variant,effect of a mutation on the interaction
1,MADYWKSQPKKFCDYCKCWIADNRPSVEFHERGKNHKENVAKRISEIKQKSLDKAKEEEKASKEFAAMEAAALKAYQEDLKRLGLESEILEPSITPVTSTIPPTSTSNQQKEKKEKKKRKKDPSKGRWVEGITSEGYHYYYDLISGASQAEKPEGFQGDLKKTAVKTVWVEGLSEDGFTYYYNTETGESRWEKPDDFIPHTSDLPSSKVNENSLGTLDESKSSDSHSDSDGEQEAEEGGVSTETEKPKIKFKEKNKNSDGGSDPETQKEKSIQKQNSLGSNEEKSKTLKKSNPYGEWQEIKQEVESHEEVDLELPSTENEYVSTSEADGGGEPKVVFKEKTVTSLGVMADGVAPVFKKRRTENGKSRNLRQRGDDQ [W150A],with no effect
